{"source": "the RNAGym collection of RNA variant scans (doi:10.7554/elife.90254)", "parents": {"B1": {"name": "LINE1-mini (parent)", "chain": "GGCAGAGCUCAACACAGCGUGGCAAAGUGGCUGUGGCUAGACUGCC"}}}
{"variants_of": "B1", "experiment": "self-cleavage, relative activity (ratio to wild type); higher = more cleavage; in vitro, sequencing; the parent is a self-cleaving ribozyme"}
{"variant": "GGCAGAGCUCAAAACAGCGUGGCAAAGUAGCUGUGGCUAGACUGCC", "note": "[C13A G29A]", "self-cleavage": 0.19}
{"variant": "GGCUGAGCUCAACACAGCGUGGCAAAGUGGCUGUGGCUAGAAUGCC", "note": "[A4U C42A]", "self-cleavage": 0.11}
{"variant": "GGCAGAGCUCCACACAGCGUGGCAAAGUGGCUGUUGCUAGACUGCC", "note": "[A11C G35U]", "self-cleavage": 0.02}
{"variant": "GGCAGAGCUCAACACAGCGUGGCAAAGUGGCUGUGGCUUGACGGCC", "note": "[A39U U43G]", "self-cleavage": 0.02}
{"variant": "GGCAGAGCUCAACACAGCGUGGCAAAGUGGCUGAGGUUAGACUGCC", "note": "[U34A C37U]", "self-cleavage": 0.04}
{"variant": "GCCAGGGCUCAACACAGCGUGGCAAAGUGGCUGUGGCUAGACUGCC", "note": "[G2C A6G]", "self-cleavage": 0.07}
{"variant": "GGCAGAGGUCAACACAGCGUGCCAAAGUGGCUGUGGCUAGACUGCC", "note": "[C8G G22C]", "self-cleavage": 0.06}
{"variant": "GGCAGAGCUAAACACAGCGUGGCAAAGUGGCGGUGGCUAGACUGCC", "note": "[C10A U32G]", "self-cleavage": 0.03}
{"variant": "GGCAGAGCUCAACGCAUCGUGGCAAAGUGGCUGUGGCUAGACUGCC", "note": "[A14G G17U]", "self-cleavage": 0.09}
{"variant": "GGCAGAGCUCAAGACAGCGUGGCAAAUUGGCUGUGGCUAGACUGCC", "note": "[C13G G27U]", "self-cleavage": 0.26}
{"variant": "GGCAGAGCUCGACAAAGCGUGGCAAAGUGGCUGUGGCUAGACUGCC", "note": "[A11G C15A]", "self-cleavage": 0.02}
{"variant": "GGCAGAGCUCAACACAACGUGGCAAAGUGGCUGUGGCUGGACUGCC", "note": "[G17A A39G]", "self-cleavage": 0.06}
{"variant": "GGCUGAGCUCAACACAGCGCGGCAAAGUGGCUGUGGCUAGACUGCC", "note": "[A4U U20C]", "self-cleavage": 0.13}
{"variant": "GGCAGAGCUCAACACAGCGUGGCAAAGUUGCUGGGGCUAGACUGCC", "note": "[G29U U34G]", "self-cleavage": 0.27}
{"variant": "GGUAGAGCUCAACACAGCGUGGCAAAGUGGCUGGGGCUAGACUGCC", "note": "[C3U U34G]", "self-cleavage": 0.07}
{"variant": "GGCAGAGCUCAACACAGCGUGACAGAGUGGCUGUGGCUAGACUGCC", "note": "[G22A A25G]", "self-cleavage": 1.23}
{"variant": "GGCAGAGCUCAACACAGAGUGGCAUAGUGGCUGUGGCUAGACUGCC", "note": "[C18A A25U]", "self-cleavage": 1.21}
{"variant": "GGCAGAGCUCAAAACAGCGUGGCAAAGUGGCUGUAGCUAGACUGCC", "note": "[C13A G35A]", "self-cleavage": 0.15}
{"variant": "GGCAGAGCUCAACACAGCGUGUCAAAGUGGCUGUGGCUAGAAUGCC", "note": "[G22U C42A]", "self-cleavage": 0.28}
{"variant": "GGCAAAGCUCAACACAGCGUGACAAAGUGGCUGUGGCUAGACUGCC", "note": "[G5A G22A]", "self-cleavage": 0.18}
{"variant": "GGCAGAGCUCAACACAGCGUGGCAAAGUGGCUGUUGAUAGACUGCC", "note": "[G35U C37A]", "self-cleavage": 0.23}
{"variant": "GGCAGCGCUCAACACAGCGUGGCAAAGUGGCUGUGGCUAGACUCCC", "note": "[A6C G44C]", "self-cleavage": 0.24}
{"variant": "GGCAGAGCUGAACACAGCGUGGCAAAGUUGCUGUGGCUAGACUGCC", "note": "[C10G G29U]", "self-cleavage": 0.08}
{"variant": "GGCAGAGCUCAACACGGCGUGGCAAAGUGGCUGUGGCUAUACUGCC", "note": "[A16G G40U]", "self-cleavage": 0.05}
{"variant": "GGCAGCGCUCAACACAGCGUGGCAAAGUGGCUGUGGCUAGACGGCC", "note": "[A6C U43G]", "self-cleavage": 0.03}
{"variant": "GGCAGAGCUCAACACAGCGUGGCCAAGUGGCUGUGGCGAGACUGCC", "note": "[A24C U38G]", "self-cleavage": 0.01}
{"variant": "GGCAGAGCUCAACACAGCGUGGCAAAGUGGCUGUGGCUUGAUUGCC", "note": "[A39U C42U]", "self-cleavage": 0.23}
{"variant": "GGCAGAGCUCAACACAGCGUGGCAAAGAGGCUGUGGCUAGUCUGCC", "note": "[U28A A41U]", "self-cleavage": 0.42}
{"variant": "GGUAGAGCUCAAAACAGCGUGGCAAAGUGGCUGUGGCUAGACUGCC", "note": "[C3U C13A]", "self-cleavage": 0.15}
{"variant": "GGCAGAGCUCUACACAGCGUGGCAAAGUGGCUGUGCCUAGACUGCC", "note": "[A11U G36C]", "self-cleavage": 0.03}
{"variant": "GGCAGAGCUCAACACAGCGUGUCCAAGUGGCUGUGGCUAGACUGCC", "note": "[G22U A24C]", "self-cleavage": 0.92}
{"variant": "UGCAGAACUCAACACAGCGUGGCAAAGUGGCUGUGGCUAGACUGCC", "note": "[G1U G7A]", "self-cleavage": 0.11}
{"variant": "GGCAGACCUCAACACAGCGUGGCAAAGUGGCUGUGGCUAGUCUGCC", "note": "[G7C A41U]", "self-cleavage": 0.21}
{"variant": "GGCAGACCUCAACACAGCGUGGCAAAGUGGCUGUGGCUAGCCUGCC", "note": "[G7C A41C]", "self-cleavage": 0.09}
{"variant": "GGCAGAGCCCAACACAGCGUGGCAAAGUGGCUGUGGCUAGCCUGCC", "note": "[U9C A41C]", "self-cleavage": 0.04}
{"variant": "GGCAGAGCUCAACACAGCGUGACAAAGCGGCUGUGGCUAGACUGCC", "note": "[G22A U28C]", "self-cleavage": 0.51}
{"variant": "GGCAGAGCUCAACACAGCGUGGCAAAGUGGCUGUGGCUAGACUCCG", "note": "[G44C C46G]", "self-cleavage": 0.08}
{"variant": "GGCAGAGCUCAACACAGCGUGGCAAAGUGGAUGUGGCUAUACUGCC", "note": "[C31A G40U]", "self-cleavage": 0.05}
{"variant": "GGCAGAGUUCAACACAGCGUGUCAAAGUGGCUGUGGCUAGACUGCC", "note": "[C8U G22U]", "self-cleavage": 0.16}
{"variant": "GGCAGAGCUCAACACAGCGUGGAAAAGUGGCUUUGGCUAGACUGCC", "note": "[C23A G33U]", "self-cleavage": 0.2}
{"variant": "GGCAGAGCUCAACACAGCGUGGCCAAGUGGCUGUGGCUCGACUGCC", "note": "[A24C A39C]", "self-cleavage": 1.1}
{"variant": "AGCAGAGCUCUACACAGCGUGGCAAAGUGGCUGUGGCUAGACUGCC", "note": "[G1A A11U]", "self-cleavage": 0.17}
{"variant": "GGCAGAGCUCAACACAGCGUGGCACAGAGGCUGUGGCUAGACUGCC", "note": "[A25C U28A]", "self-cleavage": 1.37}
{"variant": "GGCAGAGCUCAACACAGCGAGGCAAAAUGGCUGUGGCUAGACUGCC", "note": "[U20A G27A]", "self-cleavage": 0.83}
{"variant": "GGCAGAGCUCAACACAGCGAGGCAAAUUGGCUGUGGCUAGACUGCC", "note": "[U20A G27U]", "self-cleavage": 0.81}
{"variant": "GGCAGAGCUCAACACAGCGUGGCAAAGAGGCUGUGGGUAGACUGCC", "note": "[U28A C37G]", "self-cleavage": 0.04}
{"variant": "GGCAGAGCUCAACACAGCUUGGCAAAGUGGCUGUGGCUAGAAUGCC", "note": "[G19U C42A]", "self-cleavage": 0.14}
{"variant": "GGAAGAGCUCAACACAGCGUGGCAAAGUGGCUGUGGCUAGACUGCG", "note": "[C3A C46G]", "self-cleavage": 0.29}
{"variant": "GGCAAAGCUCAACACAACGUGGCAAAGUGGCUGUGGCUAGACUGCC", "note": "[G5A G17A]", "self-cleavage": 0.08}
{"variant": "GGCAGUGCUCAACCCAGCGUGGCAAAGUGGCUGUGGCUAGACUGCC", "note": "[A6U A14C]", "self-cleavage": 0.11}
{"variant": "GGCAGAGCUGAACACAGCGUGGCAAAGUGGCUGUGGCUAGAAUGCC", "note": "[C10G C42A]", "self-cleavage": 0.03}
{"variant": "GGCAGAGCUCAACACAGCGUGGCAAAGUGGCUUUGGCUGGACUGCC", "note": "[G33U A39G]", "self-cleavage": 0.12}
{"variant": "CGCAGAGCUCAACACAGCGGGGCAAAGUGGCUGUGGCUAGACUGCC", "note": "[G1C U20G]", "self-cleavage": 0.05}
{"variant": "GACAGAGCUAAACACAGCGUGGCAAAGUGGCUGUGGCUAGACUGCC", "note": "[G2A C10A]", "self-cleavage": 0.07}
{"variant": "GGCAGAGCUCUAAACAGCGUGGCAAAGUGGCUGUGGCUAGACUGCC", "note": "[A11U C13A]", "self-cleavage": 0.02}
{"variant": "GGCAGAGCUGAACACAGCGUGGCAAAGAGGCUGUGGCUAGACUGCC", "note": "[C10G U28A]", "self-cleavage": 0.11}
